The values below come from patent US20070110760A1.

The target in the test is Syk kinase (endogenous, in cell lysates) (not stated (endogenous in murine NMuMG cells and in Bal-17 B cells)) (UniProt P48025). Briefly: co-immunoprecipitation in the presence of tyrosine phosphatase inhibitors, NMuMG lysates, three independent experiments.

Some results are limits rather than exact numbers.

Chain of Syk kinase (endogenous, in cell lysates) (not stated (endogenous in murine NMuMG cells and in Bal-17 B cells)) (P48025 whole entry): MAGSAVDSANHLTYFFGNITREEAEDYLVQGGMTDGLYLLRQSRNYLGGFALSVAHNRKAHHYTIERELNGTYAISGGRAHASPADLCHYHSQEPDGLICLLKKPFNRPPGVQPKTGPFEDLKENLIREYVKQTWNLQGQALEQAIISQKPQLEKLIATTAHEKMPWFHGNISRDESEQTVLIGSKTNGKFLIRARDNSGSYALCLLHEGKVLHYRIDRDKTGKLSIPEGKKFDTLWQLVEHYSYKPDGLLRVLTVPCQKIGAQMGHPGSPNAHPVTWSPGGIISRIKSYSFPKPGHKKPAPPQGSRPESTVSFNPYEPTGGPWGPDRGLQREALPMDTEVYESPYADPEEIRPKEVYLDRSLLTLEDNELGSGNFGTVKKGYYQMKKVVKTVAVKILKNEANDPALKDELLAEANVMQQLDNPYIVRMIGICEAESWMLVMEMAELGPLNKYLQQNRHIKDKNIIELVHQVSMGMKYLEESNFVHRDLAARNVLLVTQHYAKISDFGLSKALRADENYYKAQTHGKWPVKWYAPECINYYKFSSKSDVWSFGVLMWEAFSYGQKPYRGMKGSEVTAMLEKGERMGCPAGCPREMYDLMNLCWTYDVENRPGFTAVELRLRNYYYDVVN

For “MMTV Env surface unit (SU or gp52), unmutated envelope (from UniProt P03374 99-454)”, the percent of SU co-immunoprecipitated with Syk is below 34%.
